For 36 variants, abundance fitness results are on record in the Human Domainome abundance scans (Beltran et al. 2025).

B1: V(D)J recombination-activating protein 2, residues 415 to 491; numbered along this chain, P55895 (parent)
chain: YWITCCPTCDVDINTWVPFYSTELNKPAMIYCSHGDGHWVHAQCMDLAERTLIHLSAGSNKYYCNEHVEIARALHTP

± gives the uncertainty stated by the source.

Variants of B1 are the subject of this data set. As to the kind of experiment: abundance fitness (aPCA) (normalised: wild type 0, dead -1); higher = more abundant; growth selection in yeast, the domain comes from the species named. As to conditions: Homo sapiens.
On to YWITCCPTCDVDINTWVPFYSTELNKPAMIYCSHGSGHWVHAQCMDLAERTLIHLSAGSNKYYCNEHVEIARALHTP [D36S], for which the abundance fitness is -0.149 ± 0.14.
The same measure for YWITCCPTCDVDINTWVPFYSTELNKPAMIYCSHGPGHWVHAQCMDLAERTLIHLSAGSNKYYCNEHVEIARALHTP [D36P]: -0.011 ± 0.14.
The value for YWITCCPTCDVDINTWVPFYSTELNKPAMIYCSHGYGHWVHAQCMDLAERTLIHLSAGSNKYYCNEHVEIARALHTP [D36Y] was -0.32 ± 0.41.
With YWITCCPTCDVDINTWVPFYSTELNKPAMIYCSHGTGHWVHAQCMDLAERTLIHLSAGSNKYYCNEHVEIARALHTP [D36T], the abundance fitness was -0.62 ± 0.45.
The value for YWITCCPTCDVDINTWVPFYSTELNKPAMIYCSHGRGHWVHAQCMDLAERTLIHLSAGSNKYYCNEHVEIARALHTP [D36R] was -0.246 ± 0.094.
The value for YWITCCPTCDVDINTWVPFYSTELNKPAMIYCSHGQGHWVHAQCMDLAERTLIHLSAGSNKYYCNEHVEIARALHTP [D36Q] was 0.055 ± 0.19; that for YWITCCPTCDVDINTWVPFYSTELNKPAMIYCSHGDGNWVHAQCMDLAERTLIHLSAGSNKYYCNEHVEIARALHTP [H38N] was -0.689 ± 0.42; that for YWITCCPTCDVDINTWVPFYSTELNKPAMIYCSHGDGYWVHAQCMDLAERTLIHLSAGSNKYYCNEHVEIARALHTP [H38Y] was -0.543 ± 0.46.
The same measure for YWITCCPTCDVDINTWVPFYSTELNKPAMIYCSHGDGAWVHAQCMDLAERTLIHLSAGSNKYYCNEHVEIARALHTP [H38A]: -0.986 ± 0.48; for YWITCCPTCDVDINTWVPFYSTELNKPAMIYCSHGDGVWVHAQCMDLAERTLIHLSAGSNKYYCNEHVEIARALHTP [H38V]: -0.776 ± 0.31.
As for YWITCCPTCDVDINTWVPFYSTELNKPAMIYCSHGDGHWFHAQCMDLAERTLIHLSAGSNKYYCNEHVEIARALHTP [V40F], the abundance fitness was -0.852 ± 0.3.
The same measure for YWITCCPTCDVDINTWVPFYSTELNKPAMIYCSHGDGHWDHAQCMDLAERTLIHLSAGSNKYYCNEHVEIARALHTP [V40D]: -0.555 ± 0.43; for YWITCCPTCDVDINTWVPFYSTELNKPAMIYCSHGDGHWGHAQCMDLAERTLIHLSAGSNKYYCNEHVEIARALHTP [V40G]: -0.744 ± 0.13.
The value for YWITCCPTCDVDINTWVPFYSTELNKPAMIYCSHGDGHWAHAQCMDLAERTLIHLSAGSNKYYCNEHVEIARALHTP [V40A] was -0.288 ± 0.14; that for YWITCCPTCDVDINTWVPFYSTELNKPAMIYCSHGDGHWCHAQCMDLAERTLIHLSAGSNKYYCNEHVEIARALHTP [V40C] was -0.206 ± 0.18.
Consider YWITCCPTCDVDINTWVPFYSTELNKPAMIYCSHGDGHPVHAQCMDLAERTLIHLSAGSNKYYCNEHVEIARALHTP [W39P], for which the abundance fitness was -0.294 ± 0.064.
The value for YWITCCPTCDVDINTWVPFYSTELNKPAMIYCSHGDGHRVHAQCMDLAERTLIHLSAGSNKYYCNEHVEIARALHTP [W39R] was -0.185 ± 0.029; that for YWITCCPTCDVDINTWVPFYSTELNKPAMIYCSHGDGHFVHAQCMDLAERTLIHLSAGSNKYYCNEHVEIARALHTP [W39F] was -0.105 ± 0.074.
The same measure for YWITCCPTCDVDINTWVPFYSTELNKPAMIYCSHGDGHLVHAQCMDLAERTLIHLSAGSNKYYCNEHVEIARALHTP [W39L]: -0.097 ± 0.033; for YWITCCPTCDVDINTWVPFYSTELNKPAMIYCSHGDGHNVHAQCMDLAERTLIHLSAGSNKYYCNEHVEIARALHTP [W39N]: -0.274 ± 0.1.
With YWITCCPTCDVDINTWVPFYSTELNKPAMIYCSHGDGHQVHAQCMDLAERTLIHLSAGSNKYYCNEHVEIARALHTP [W39Q], the abundance fitness was -0.176 ± 0.053.
Consider YWITCCPTCDVDINTWVPFYSTELNKPAMIYCSHGDGHTVHAQCMDLAERTLIHLSAGSNKYYCNEHVEIARALHTP [W39T], for which the abundance fitness is -0.197 ± 0.049.
The value for YWITCCPTCDVDINTWVPFYSTELNKPAMIYCSHGDGHVVHAQCMDLAERTLIHLSAGSNKYYCNEHVEIARALHTP [W39V] was -0.193 ± 0.034.
The same measure for YWITCCPTCDVDINTWVPFYSTELNKPAMIYCSHGDGHMVHAQCMDLAERTLIHLSAGSNKYYCNEHVEIARALHTP [W39M]: -0.072 ± 0.036.
The same measure for YWITCCPTCDVDINTWVPFYSTELNKPAMIYCSHGDGHKVHAQCMDLAERTLIHLSAGSNKYYCNEHVEIARALHTP [W39K]: -0.23 ± 0.07; for YWITCCPTCDVDINTWVPFYSTELNKPAMIYCSHGDGHEVHAQCMDLAERTLIHLSAGSNKYYCNEHVEIARALHTP [W39E]: -0.148 ± 0.049; for YWITCCPTCDVDINTWVPFYSTELNKPAMIYCSHGDGHYVHAQCMDLAERTLIHLSAGSNKYYCNEHVEIARALHTP [W39Y]: 0.014 ± 0.079.
With YWITCCPTCDVDINTWVPFYSTELNKPAMIYCSHGDGHDVHAQCMDLAERTLIHLSAGSNKYYCNEHVEIARALHTP [W39D], the abundance fitness is -0.536 ± 0.093.
The same measure for YWITCCPTCDVDINTWVPFYSTELNKPAMIYCSHGDGHIVHAQCMDLAERTLIHLSAGSNKYYCNEHVEIARALHTP [W39I]: -0.278 ± 0.078; for YWITCCPTCDVDINTWVPFYSTELNKPAMIYCSHGDGHSVHAQCMDLAERTLIHLSAGSNKYYCNEHVEIARALHTP [W39S]: -0.209 ± 0.039; for YWITCCPTCDVDINTWVPFYSTELNKPAMIYCSHGDGHHVHAQCMDLAERTLIHLSAGSNKYYCNEHVEIARALHTP [W39H]: -0.144 ± 0.11.
The same measure for YWITCCPTCDVDINTWVPFYSTELNKPAMIYCSHGDGHGVHAQCMDLAERTLIHLSAGSNKYYCNEHVEIARALHTP [W39G]: -0.54 ± 0.034; for YWITCCPTCDVDINTWVPFYSTELNKPAMIYCSHGDKHWVHAQCMDLAERTLIHLSAGSNKYYCNEHVEIARALHTP [G37K]: -0.785 ± 0.37.
The same measure for YWITCCPTCDVDINTWVPFYSTELNKPAMIYCSHGDEHWVHAQCMDLAERTLIHLSAGSNKYYCNEHVEIARALHTP [G37E]: -0.778 ± 0.26; for YWITCCPTCDVDINTWVPFYSTELNKPAMIYCSHGDSHWVHAQCMDLAERTLIHLSAGSNKYYCNEHVEIARALHTP [G37S]: -0.839 ± 0.21; for YWITCCPTCDVDINTWVPFYSTELNKPAMIYCSHGDPHWVHAQCMDLAERTLIHLSAGSNKYYCNEHVEIARALHTP [G37P]: 0.076 ± 0.23.
